Measured values from patent publication US20210388087A1.
Substitutions are numbered along the chain they refer to. Names and notes keep the numbering of the source.

B1: H183/L072 VL H27dA (antibody, name in Kabat numbering, V domains shown)
VH: QVQLVESGGGLVQPGRSLRLSCAASGFTFSNAWMHWVRQAPGKGLEWVAQIKDKGNAYAAYYAPSVKGRFTISRDDSKNSIYLQMNSLKTEDTAVYYCHYVHYASASTVLPAFGVDAWGQGTTVTVSS
VL: DIVMTQSPLSLPVTPGEPASISCQASQELVAMNRNTYLHWYQQKPGQAPRLLIYKVSNRFPGVPDRFSGSGSGTDFTLKISRVEAEDVGVYYCAQGTSVPFTFGQGTKLEIK
B2: H183/L072 VL L33I (antibody, name in Kabat numbering, V domains shown)
VH: B1 VH
VL: B1 VL with A31H, L38I
B3: H183/L072 VL N28M (antibody, name in Kabat numbering, V domains shown)
VH: B1 VH
VL: B1 VL with A31H, N33M
B4: H183/L072 VL Y32I (antibody, name in Kabat numbering, V domains shown)
VH: B1 VH
VL: B1 VL with A31H, Y37I
B5: H183/L072 VL H34I (antibody, name in Kabat numbering, V domains shown)
VH: B1 VH
VL: B1 VL with A31H, H39I
B6: H183/L072 VL A25L (antibody, name in Kabat numbering, V domains shown)
VH: B1 VH
VL: B1 VL with A25L, A31H
B7: H183/L072 VL H27dI (antibody, name in Kabat numbering, V domains shown)
VH: B1 VH
VL: B1 VL with A31I
B8: H183/L072 VL H27dM (antibody, name in Kabat numbering, V domains shown)
VH: B1 VH
VL: B1 VL with A31M
B9: H183/L072 VL T31M (antibody, name in Kabat numbering, V domains shown)
VH: B1 VH
VL: B1 VL with A31H, T36M
B10: H183/L072 VL N28L (antibody, name in Kabat numbering, V domains shown)
VH: B1 VH
VL: B1 VL with A31H, N33L
B11: H183/L072 VL H27dL (antibody, name in Kabat numbering, V domains shown)
VH: B1 VH
VL: B1 VL with A31L
B12: H183/L072 VL N28I (antibody, name in Kabat numbering, V domains shown)
VH: B1 VH
VL: B1 VL with A31H, N33I
B13: H183/L072 VH D52aF (antibody, name in Kabat numbering, V domains shown)
VH: B1 VH with D53F
VL: B1 VL with A31H
B14: H183/L072 VH I51W (antibody, name in Kabat numbering, V domains shown)
VH: B1 VH with I51W
VL: B1 VL with A31H
B15: H183/L072 VH L100dP (antibody, name in Kabat numbering, V domains shown)
VH: B1 VH with L110P
VL: B1 VL with A31H
B16: H183/L072 VH F100gP (antibody, name in Kabat numbering, V domains shown)
VH: B1 VH with F113P
VL: B1 VL with A31H
B17: H183/L072 VH D101P (antibody, name in Kabat numbering, V domains shown)
VH: B1 VH with D116P
VL: B1 VL with A31H
B18: H183/L072 VH I51F (antibody, name in Kabat numbering, V domains shown)
VH: B1 VH with I51F
VL: B1 VL with A31H
B19: H183/L072 VH D52aW (antibody, name in Kabat numbering, V domains shown)
VH: B1 VH with D53W
VL: B1 VL with A31H
B20: H183/L072 VH H35W (antibody, name in Kabat numbering, V domains shown)
VH: B1 VH with H35W
VL: B1 VL with A31H
B21: H183/L072 VH N53F (antibody, name in Kabat numbering, V domains shown)
VH: B1 VH with N56F
VL: B1 VL with A31H
B22: H183/L072 VH Q50R (antibody, name in Kabat numbering, V domains shown)
VH: B1 VH with Q50R
VL: B1 VL with A31H
B23: H183/L072 VH V100cP (antibody, name in Kabat numbering, V domains shown)
VH: B1 VH with V109P
VL: B1 VL with A31H
B24: H183/L072 VH A56F (antibody, name in Kabat numbering, V domains shown)
VH: B1 VH with A59F
VL: B1 VL with A31H
B25: H183/L072 VH A102P (antibody, name in Kabat numbering, V domains shown)
VH: B1 VH with A117P
VL: B1 VL with A31H
B26: H183/L072 VH T100bP (antibody, name in Kabat numbering, V domains shown)
VH: B1 VH with T108P
VL: B1 VL with A31H
B27: H183/L072 VH G100hP (antibody, name in Kabat numbering, V domains shown)
VH: B1 VH with G114P
VL: B1 VL with A31H
B28: H183/L072 VH S100aP (antibody, name in Kabat numbering, V domains shown)
VH: B1 VH with S107P
VL: B1 VL with A31H
B29: H183/L072 VH S99P (antibody, name in Kabat numbering, V domains shown)
VH: B1 VH with S105P
VL: B1 VL with A31H
B30: H183/L072 VH V100iP (antibody, name in Kabat numbering, V domains shown)
VH: B1 VH with V115P
VL: B1 VL with A31H
B31: H183/L072 VH K52W (antibody, name in Kabat numbering, V domains shown)
VH: B1 VH with K52W
VL: B1 VL with A31H
B32: H183/L072 VH K52F (antibody, name in Kabat numbering, V domains shown)
VH: B1 VH with K52F
VL: B1 VL with A31H
B33: H183/L072 VH A57W (antibody, name in Kabat numbering, V domains shown)
VH: B1 VH with A60W
VL: B1 VL with A31H
B34: H183/L072 VH D52aR (antibody, name in Kabat numbering, V domains shown)
VH: B1 VH with D53R
VL: B1 VL with A31H
B35: H183/L072 VH I51R (antibody, name in Kabat numbering, V domains shown)
VH: B1 VH with I51R
VL: B1 VL with A31H
B36: H183/L072 VH F29R (antibody, name in Kabat numbering, V domains shown)
VH: B1 VH with F29R
VL: B1 VL with A31H
B37: H183/L072 VH A32W (antibody, name in Kabat numbering, V domains shown)
VH: B1 VH with A32W
VL: B1 VL with A31H
B38: H183/L072 VH N31R (antibody, name in Kabat numbering, V domains shown)
VH: B1 VH with N31R
VL: B1 VL with A31H
B39: H183/L072 VH N53W (antibody, name in Kabat numbering, V domains shown)
VH: B1 VH with N56W
VL: B1 VL with A31H
B40: H183/L072 VH H35R (antibody, name in Kabat numbering, V domains shown)
VH: B1 VH with H35R
VL: B1 VL with A31H
B41: H183/L072 VH M34R (antibody, name in Kabat numbering, V domains shown)
VH: B1 VH with M34R
VL: B1 VL with A31H
B42: H183/L072 VH Y55R (antibody, name in Kabat numbering, V domains shown)
VH: B1 VH with Y58R
VL: B1 VL with A31H
B43: H183/L072 VH N53R (antibody, name in Kabat numbering, V domains shown)
VH: B1 VH with N56R
VL: B1 VL with A31H
B44: H183/L072 VH M34W (antibody, name in Kabat numbering, V domains shown)
VH: B1 VH with M34W
VL: B1 VL with A31H
B45: H183/L072 VH W33R (antibody, name in Kabat numbering, V domains shown)
VH: B1 VH with W33R
VL: B1 VL with A31H
B46: H183/L072 VH W33F (antibody, name in Kabat numbering, V domains shown)
VH: B1 VH with W33F
VL: B1 VL with A31H
B47: H183/L072 VH Y55W (antibody, name in Kabat numbering, V domains shown)
VH: B1 VH with Y58W
VL: B1 VL with A31H

target: Human CD3eg linker (human); test: SPR; fold vs parent H183/L072
Sequence (chain, as listed by the source limits assumed): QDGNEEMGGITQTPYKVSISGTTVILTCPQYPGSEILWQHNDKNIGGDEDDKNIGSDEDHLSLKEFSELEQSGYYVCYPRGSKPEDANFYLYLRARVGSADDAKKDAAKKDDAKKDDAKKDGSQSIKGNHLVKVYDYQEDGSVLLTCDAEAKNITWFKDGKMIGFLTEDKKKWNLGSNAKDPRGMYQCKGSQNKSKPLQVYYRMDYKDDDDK

| fold change of affinity [fold] | Binder |
| --- | --- |
| 0 | B1 |
| 0 | B2 |
| 0 | B3 |
| 0 | B4 |
| 0 | B5 |
| 0 | B6 |
| 0 | B7 |
| 0 | B8 |
| 0 | B9 |
| 0 | B10 |
| 0 | B11 |
| 0 | B12 |

target: Human CD137 ECD (human); test: single mutant vs template dBBDu183H
Sequence (chain, as listed by the source limits assumed): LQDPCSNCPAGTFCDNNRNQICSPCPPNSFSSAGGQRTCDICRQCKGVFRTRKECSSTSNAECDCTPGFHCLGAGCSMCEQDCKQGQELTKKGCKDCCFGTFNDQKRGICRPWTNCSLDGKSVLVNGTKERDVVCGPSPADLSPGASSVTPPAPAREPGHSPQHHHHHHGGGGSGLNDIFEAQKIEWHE

| fold change of affinity [fold] | Binder |
| --- | --- |
| 0 | B13 |
| 0 | B14 |
| 0 | B15 |
| 0 | B16 |
| 0 | B17 |
| 0 | B18 |
| 0 | B19 |
| 0 | B20 |
| 0 | B21 |
| 0 | B22 |
| 0 | B23 |
| 0 | B24 |
| 0 | B25 |
| 0 | B26 |
| 0 | B27 |
| 0 | B28 |
| 0 | B29 |
| 0 | B30 |

| fold change of affinity [fold] | Binder |
| --- | --- |
| 0 | B31 |
| 0 | B32 |
| 0 | B33 |
| 0 | B34 |
| 0 | B35 |
| 0 | B36 |
| 0 | B37 |
| 0 | B38 |
| 0 | B39 |
| 0 | B40 |
| 0 | B41 |
| 0 | B42 |
| 0 | B43 |
| 0 | B44 |
| 0 | B45 |
| 0 | B46 |
| 0 | B47 |
